From the supplement of paper PMC7877785
± gives the uncertainty stated by the source.

Experiment: self-splicing fitness, log relative to wild type (ln ratio); higher = more splicing; Tetrahymena group I intron in knt gene, E. coli kanamycin selection, DiMSum; sequences stand for … in CUCUCU…GGAGGGAAAAGUUAUCAGGCAUGCACCUGGUAGCUAGUCUUUAAACCAAUAGAUUGCAUCGGUUUAAAAGGCAAGACCGUCAAAUUGCGGGAAAGGGGUCAACAGCCGUUCAGUACCAAGUCUCAGGGGAAACUUUGAGAUGGCCUUGCAAAGGGUAUGGUAAUAAGCUGACGGACAUGGUCCUAACCACGCAGCCAAGUCCUAAGUCAACAGAUCUUCUGUUGAUAUGGAUGCAGUUCACAGACUAAAUGUCGGUCGGGGAAGAUGUAUUCUUCUCAUAAGAUAUAGUCGGACCUCUCCUUAAUGGGAGCUAGCGGAUGAAGUGAUGCAACACUGGAGCCGCUGGGAACUAAUUUGUAUGCGAAAGUAUAUUGAUUAGUUUUGGAGUACUCGUGGUCG
Method in brief: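 Library with all eight P1ex-region intron nucleotides randomised, intron inside the knt kanamycin-resistance gene on pET-22b(+), in E. coli BL21(DE3). Cells grew overnight at 37°C or 30°C on LB agar with or without 25 μg/mL kanamycin (plus 100 μg/mL carbenicillin, 50 μM IPTG, 0.2% rhamnose), in six replicate transformations. Pooled colonies were amplicon-sequenced on Illumina HiSeq 2500. DiMSum fitness is the error-weighted combination of wild-type-normalised replicate fold changes, kanamycin versus none.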

Row | Sequence | self-splicing fitness (ln) (30 °C) | self-splicing fitness (ln) (37 °C)
1 | AGAUAGCAAUAUUACGUCUC | -3.01 ± 0.21 | -3.05 ± 0.4
2 | AAUGAGCAAUAUUACGACAU | -1.33 ± 0.014 | -0.714 ± 0.033
3 | GGCGAGCAAUAUUACGUAAC | -2.52 ± 0.19 | -0.781 ± 0.13
4 | UUCGAGCAAUAUUACGACUG | -3.35 ± 0.34 | -1.48 ± 0.26
5 | UGAUAGCAAUAUUACGACAC | – | -2.22 ± 0.45
6 | AAGUAGCAAUAUUACGAUUA | -0.56 ± 0.1 | -0.688 ± 0.08
7 | AGCGAGCAAUAUUACGGUCC | -0.807 ± 0.14 | -0.398 ± 0.18
8 | GCAUAGCAAUAUUACGAUUG | -2.38 ± 0.14 | -1.67 ± 0.15
9 | CCGAAGCAAUAUUACGCAGA | -2.91 ± 0.38 | -2.57 ± 0.33
10 | GCAGAGCAAUAUUACGUGCA | -3.08 ± 0.29 | -2.21 ± 0.23
11 | AGGAAGCAAUAUUACGUUUU | -4.64 ± 0.31 | -1.82 ± 0.23
12 | CACUAGCAAUAUUACGAUAU | -4.57 ± 0.34 | -2.17 ± 0.2
13 | AACAAGCAAUAUUACGUCAG | -3.64 ± 0.16 | -2.39 ± 0.14
14 | UACCAGCAAUAUUACGAGCU | -3.29 ± 0.21 | -2.7 ± 0.24
15 | CGGAAGCAAUAUUACGUCAC | – | -1.76 ± 0.4
16 | UUACAGCAAUAUUACGUGUA | -2.48 ± 0.084 | -1.48 ± 0.081
17 | AAUUAGCAAUAUUACGUAUA | -1.83 ± 0.28 | -1.32 ± 0.38
18 | UCAAAGCAAUAUUACGCGUA | -0.554 ± 0.1 | -0.355 ± 0.099
19 | AAGAAGCAAUAUUACGGCCA | -0.587 ± 0.097 | -0.00293 ± 0.12

Row | Sequence | self-splicing fitness (ln) (30 °C) | self-splicing fitness (ln) (37 °C)
20 | AACUAGCAAUAUUACGUAUC | -3.83 ± 0.34 | -2.38 ± 0.29
21 | ACGUAGCAAUAUUACGAACC | -1.44 ± 0.11 | -0.279 ± 0.15
22 | UGGCAGCAAUAUUACGUAAG | -0.674 ± 0.049 | 0.00441 ± 0.073
23 | UUCCAGCAAUAUUACGCGCC | -2.72 ± 0.24 | -0.4 ± 0.21
24 | AGCAAGCAAUAUUACGUGUC | -3.85 ± 0.23 | -2.44 ± 0.17
25 | UAGUAGCAAUAUUACGAAUA | -1.33 ± 0.23 | -0.977 ± 0.21
26 | ACAAAGCAAUAUUACGGACG | -0.851 ± 0.045 | -0.124 ± 0.065
27 | CCGUAGCAAUAUUACGUCGA | -1.93 ± 0.14 | -1.57 ± 0.13
28 | GGGGAGCAAUAUUACGGCGA | -2.4 ± 0.26 | -1.81 ± 0.24
29 | AUAAAGCAAUAUUACGUGUA | -1.55 ± 0.069 | -0.325 ± 0.089
30 | CGAUAGCAAUAUUACGACCU | -1.35 ± 0.12 | 0.288 ± 0.14
31 | AUAAAGCAAUAUUACGGAAC | -2.45 ± 0.26 | -0.934 ± 0.19
32 | CGGGAGCAAUAUUACGCGGA | -2.82 ± 0.23 | -2.93 ± 0.28
33 | AAGUAGCAAUAUUACGUUUG | -2.41 ± 0.13 | -1.49 ± 0.13
34 | CUGAAGCAAUAUUACGAAGG | -0.457 ± 0.093 | -1.38 ± 0.14
35 | ACCGAGCAAUAUUACGCCUC | -2.87 ± 0.19 | -2.36 ± 0.22
36 | CUUAAGCAAUAUUACGGGAU | -2.82 ± 0.17 | -1.94 ± 0.19
37 | UAUGAGCAAUAUUACGACGA | -1.87 ± 0.36 | -1.62 ± 0.34
38 | CUCUAGCAAUAUUACGCCGU | -2.12 ± 0.27 | -3.98 ± 0.39
